# Laboratory results published in article PMC10373542 (Journal of Virology, 2023).
# B1: FD20 monoclonal antibody (antibody, V domains shown)
# VH: QVQLQQSGAEVKKPGSSVKVSCKASGGTFSSYAFSWVRQAPGQGLEWMGRIIPILGIANYAQKFQGRVTITADISTSTAYMALSSLRSEDTAVYYCAKVEVNIGMDDYYYYYGMDVWGQGTTVTVSS
# VL: not shown
# B2: ION-300 monoclonal antibody (antibody, V domains shown)
# VH: QVQLVQSGAEVKKPGESLKISCKGSGYSFTSYWIGWVRQMPGKGLEWMGIIYPGDSDTRYSPSFQGQVTISADKSISTAYLQWSSLKASDTAMYYCARHPSPYYYGSGSYSGGFDYWGQGTLVTVSS
# VL: DIVMTQSPGTLSLSPGERATLSCRASQSVSSSYLAWYQQKPGQAPRLLIYGASTRATGIPARFSGSGSGTEFTLTISSLQSEDFAVYYCQQYDNWPLMHTFGQGTKLEIK
# B3: WRAIR-2134 monoclonal antibody (antibody, V domains shown)
# VH: EVQLVESGGGVVQPGRSLRLSCAASGFIFSSYGMYWVRQAPGKGLEWVAVIWYDGSNKYYADSVKGRFTISRDNSKNTLYLQMNSLRAEDTAVYYCARDLSSSSGWDDYYYYYGMDVWGQGTTVTVSS
# VL: not shown
# B4: 6D6 monoclonal antibody (antibody, V domains shown)
# VH: EVQLQQSGAELVKPGASVKLSCTTSGFNIIDTYMHWVKQRPEEGLEWIGGIDPVNGNSEYDPKFQDKATITADTSSNTAYLHLSRLTSEDTAVYYCASAHYYGSSSSFPYWGQGTDLVTVS
# VL: DIVMTQSQKFMSTSVGDRVSVTCKASQNVGTHVAWYQQKPGQSPKALIYSASYRYSGVPDRFTGSGVGTDFTLTITNVQSEDLAEYFCQQYNSYFTFGSGTKLEIK
# B5: N-612-056 monoclonal antibody (antibody, V domains shown)
# VH: not shown
# VL: DIQMTQSPSSLSASVGDRVTITCQASQDISNYLNWYQQKPGKAPKLLIYDASNLETGVPSRFSGSGSGTDFTFTISSLQPEDIATYYCQQDAGTPLTFGQGTKVEIK
# B6: 7D6 monoclonal antibody (antibody, V domains shown)
# VH: EVQLQQSGAELVRPGASVKLSCTASGFNIKDTYIHWVKQRPEQGLEWIGRIDPGDGDTEYDPSFQGKATITADTSSNTAYLELSSLTSEDTAVYYCTRFYDYVDYGMDYWGQGTSVTVSS
# VL: DIQMTQSPASLSASVGETVTITCRASGNIHNYLAWYQQKQGKSPQLLVYNAKTLADGVPSRFSGSGSGTQYSLKINSLQPEDFGSYYCQHFWSTPPWTFGGGTKLEVK
# B7: WRAIR-2057 monoclonal antibody (antibody, V domains shown)
# VH: EVQLVQSGAEVKKPGESLKISCKGSGYSFISYWIAWVRQMPGKGLEWMGIIYPGDSDTTYSPSFQGQVTISADKSISTAYLQWSSLKASDTAIYYCARLLYYSDSSPLDSWGQGTLVTVSS
# VL: DIQMTQSPSSLSASVGDRVTITCRASQSISTYLNWYQQKPGKAPNLLIYAASSLQSGVPSRFSGSGSGTDFTLTISSLQPEDFATYYCQQSHSTPRTFGPGTKVDIK
# B8: X17 monoclonal antibody (antibody, V domains shown)
# VH: QVQLQQSGAELARPGASVKLSCKASGYTFTFYWMQWLKQRPGQGLEWIGAIYPGDGDTRYTQRFKDKATLTADKSSSTAYIQLSSLASEDSAVYYCAGGEYDNYGFDYWGQGTTLTVSS
# VL: DIQMTQTTSSLSASLGDRVTISCRASQDISNYLNWYQQKPDGTVKLLIYYTSRLHSGVPSRFSGSGSGTDYSLTISNLEQEDIATYFCQQGTTLPYTFGGGTKLEIK
# B9: COVOX-45 monoclonal antibody (antibody, V domains shown)
# VH: QVQLVESGGGVVQPGRSLRLSCAASGFTFSTYAMHWVRQAPGKGLEWVAVLSYDGSNKYYADSVKGRFTISRDNSKNTLYLQMNSLRAEDTAVYYCAKGGSYAYYYYMDVWGKGTTVTVSS
# VL: not shown
# B10: S2H97 monoclonal antibody (antibody, V domains shown)
# VH: QVRLVQSGAEVKKSGESLKISCKGSGYSFTSYWIGWVRQMPGKGLEWMGIIYPGDSDTRYSPSFQGQVTISADKSISTVYLQWSSLKASDTAMYYCARQWSHYTYDYYYWGQGTLVTISS
# VL: QSVLTQPASVSGSPGQSITISCTGISSDVGGYNSVSWYQQHPGKAPKLMIYDVTNRPSGVSNRFSGSKSGNTASLTISGLQAEDEADYYCSSYTSSSTPPYVFGTGTKVSVL
# B11: Walter Reed Army Institute of Research 2063 (WRAIR-2063) monoclonal antibody, human IgG1 (antibody, V domains shown)
# VH: EVQLVESGGGVVQPGRSLRLSCAASGFTFSSYGMHWVRQAPGKGLEWVAVIWYDGSNKYYADSVKGRFTISRDNSKNTLYLQMNSLRAEDTAVYYCARGPLGSNYFNYDAFDIWGQGTMVTVSS
# VL: DVVMTQSPLSLPVTLGQPASISCRSSQSLEYSDGNTYLNWFQQRPGQSPRRLIYKVSKRDSGVPDRFSGSGSGSDFTLKISRVEAEDVGVYYCMQGTHWPLTFGGGTKVEIK
# Target: T1, SARS-CoV-2 WA-1 spike receptor binding domain (RBD) (SARS-CoV-2 WA-1 (S identical to …, UniProt P0DTC2))
# Test: BLI
row,Binder,fold higher rate of dissociation (koff) than with WRAIR-2063 [fold]
1,B1,~10
2,B2,~10
3,B3,~10
4,B4,~10
5,B5,~10
6,B6,~10
7,B7,~10
8,B8,~10
9,B9,~10

# Target: T1, SARS-CoV-2 WA-1 spike receptor binding …
# Test: cell-based or functional assay
row,Binder,IC50 of neutralization of WA-1 pseudotyped virus on HEK293 cells expressing ACE2 [µg/mL]
1,B1,0.6
2,B2,0.99
3,B3,18.6
4,B4,1.37
5,B5,4.47
6,B6,0.33
7,B7,1.85
8,B8,2.27
9,B10,0.31
10,B9,0.32
11,B11,0.45

# Target: T1, SARS-CoV-2 WA-1 spike receptor binding …
# Test: BLI
# Remark: another data set of the same source
row,Binder,Kd [nM]
1,B1,3.07
2,B2,3.65
3,B3,4.26
4,B4,3.62
5,B5,6.31
6,B6,3.41
7,B7,6.3
8,B8,4.72
9,B10,0.9
10,B9,4.43
